Common to all, as to test: cell-based or functional assay
Test [1] concerns the target HIV-1 envelope glycoprotein (Env) of isolate QH0692.42, on pseudovirus (HIV-1).
Test [2] has as its target HIV-1 envelope glycoprotein (Env) of isolate TRJO4551.58, on pseudovirus (HIV-1).
The target of test [3] is HIV-1 envelope glycoprotein (Env) of isolate MG RM-A-014, subtype A (HIV-1).
Test [4] addresses HIV-1 envelope glycoprotein (Env) of isolate MGRM-Chronic-B-001, on pseudovirus (HIV-1).
Test [5] deals with HIV-1 envelope glycoprotein (Env) of isolate MG RM-AG-006 (HIV-1).
Test [6] deals with HIV-1 envelope glycoprotein (Env) of isolate MGRM-AE-008 (HIV-1).
Test [7] concerns the target HIV-1 Env of isolate MGRM-G-024 (subtype G) (HIV-1).
Test [8] has as its target HIV-1 Env of isolate MGRM-F1-023 (HIV-1).
The target in test [9] is HIV-1 Env of isolate MGRM-AG-002 (pseudovirus) (HIV-1).
The target of test [10] is HIV-1 Env of isolate MGRM-AE-007 (pseudovirus) (HIV-1).
The target in test [11] is HIV-1 Env of isolate MGRM-G-004 (subtype G) (HIV-1).
Test [12] addresses aMLV envelope (negative control pseudovirus) (aMLV).
In test [13] the target is HIV-1 Env of isolate MGRM-F1-022 (HIV-1).
The target of test [14] is HIV-1 93IN905 Env (HIV-1).
Test [15] deals with HIV-1 94UG103 Env (HIV-1).
In test [16] the target is HIV-1 MGRM-AE-008 Env (pseudovirus) (HIV-1).
In test [17] the target is HIV-1 APV-17 envelope (Env) on pseudovirus (HIV-1).
The target of test [18] is HIV-1 Env of isolate 94KE105 (listed under clade A; pseudovirus) (HIV-1).
In test [19] the target is HIV-1 envelope glycoprotein (Env) of isolate MGRM-C-007 (HIV-1).
In test [20] the target is HIV-1 envelope glycoprotein (Env) of isolate LAVI_C3 (HIV-1).
Test [21] has as its target HIV-1 MGRM-AE-004 Env (pseudovirus) (HIV-1).
The target in test [22] is HIV-1 Env of isolate THR0.18 (Acute), clade B (HIV-1).
Test [23] addresses HIV-1 Env of pseudovirus MGRM-F1-022 (clade F) (HIV-1).

PGT-142 (4995_E20) (antibody), sequence (VH): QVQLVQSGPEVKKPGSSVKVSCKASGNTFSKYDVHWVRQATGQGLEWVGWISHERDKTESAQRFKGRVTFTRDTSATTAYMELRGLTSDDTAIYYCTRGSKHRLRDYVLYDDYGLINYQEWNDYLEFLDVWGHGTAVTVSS
PGT-142 (4995_E20) (antibody), sequence (VL): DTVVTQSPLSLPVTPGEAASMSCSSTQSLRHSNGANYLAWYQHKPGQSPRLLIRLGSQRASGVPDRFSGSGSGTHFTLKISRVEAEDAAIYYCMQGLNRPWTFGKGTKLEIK
PGT-144 (4970_K22) (antibody), sequence (VH): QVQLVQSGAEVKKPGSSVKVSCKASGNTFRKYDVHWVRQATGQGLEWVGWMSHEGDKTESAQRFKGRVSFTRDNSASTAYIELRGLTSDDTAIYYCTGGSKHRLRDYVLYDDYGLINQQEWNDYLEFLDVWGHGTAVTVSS
PGT-144 (4970_K22) (antibody), sequence (VL): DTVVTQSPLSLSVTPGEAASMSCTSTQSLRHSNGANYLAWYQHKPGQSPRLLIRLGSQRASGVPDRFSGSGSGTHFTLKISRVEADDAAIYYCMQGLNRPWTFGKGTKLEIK
PGT-143 (4980_N08) (antibody), sequence (VH): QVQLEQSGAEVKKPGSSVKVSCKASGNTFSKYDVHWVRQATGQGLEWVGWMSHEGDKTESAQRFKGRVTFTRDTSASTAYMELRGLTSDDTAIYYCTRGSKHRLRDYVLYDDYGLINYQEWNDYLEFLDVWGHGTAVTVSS
PGT-143 (4980_N08) (antibody), sequence (VL): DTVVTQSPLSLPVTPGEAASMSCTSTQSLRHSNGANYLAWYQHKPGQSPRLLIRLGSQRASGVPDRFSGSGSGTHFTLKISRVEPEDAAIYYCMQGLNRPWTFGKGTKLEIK
PGT-145 (4995_P16) (antibody), sequence (VH): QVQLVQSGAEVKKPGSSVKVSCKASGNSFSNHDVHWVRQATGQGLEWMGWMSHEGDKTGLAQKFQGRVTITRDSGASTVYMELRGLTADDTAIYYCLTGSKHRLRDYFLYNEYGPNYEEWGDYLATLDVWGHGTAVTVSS
PGT-145 (4995_P16) (antibody), sequence (VL): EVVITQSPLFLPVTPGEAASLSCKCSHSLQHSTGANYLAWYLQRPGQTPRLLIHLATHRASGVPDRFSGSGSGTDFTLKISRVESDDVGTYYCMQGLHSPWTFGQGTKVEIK
PGT-141 (4964_G22; 4993_K13) (antibody), sequence (VH): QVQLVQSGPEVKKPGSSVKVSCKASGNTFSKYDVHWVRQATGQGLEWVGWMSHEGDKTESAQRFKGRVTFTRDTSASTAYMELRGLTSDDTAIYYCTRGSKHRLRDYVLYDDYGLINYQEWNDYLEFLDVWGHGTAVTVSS

For 4838_L06 (PGT-121) (antibody), the IC50, pseudovirus neutralization in test [1] stood at 0.823 µg/mL; in test [2] it was 7.09 µg/mL; in test [3], 0.003 µg/mL; in [4], 0.102 µg/mL.

What is called IC50 is the midpoint of a concentration-inhibition curve. As to PGT-142 (4995_E20) (antibody), the IC50 in test [5] is over 50 µg/mL; in test [6], 0.08 µg/mL.

With PGT-143 (4980_N08) (antibody), the figures for the half-maximal inhibitory concentration (IC50) in [5] and in test [6] were over 50 µg/mL and 0.135 µg/mL, respectively.

For the substance PGV04 (antibody), the IC50 (µg/mL), pseudovirus neutralization was 0.033 µg/mL in test [7]; 0.171 µg/mL in [8]; 0.879 µg/mL in test [9]; 5.75 µg/mL in [10]; over 50 µg/mL in test [11]; over 50 µg/mL in test [12]. This substance also returned an IC50 (µg/mL), pseudovirus neutralization in test [13] of 0.072 µg/mL.

As to PGT-145 (4995_P16) (antibody), the figures for the IC50 in test [5] and in [6] were 6.6 µg/mL and 1.46 µg/mL, respectively.

For 4877_D15 (PGT-122) (antibody), the IC50, pseudovirus neutralization in test [14] is 0.0138 µg/mL; in test [1], 0.493 µg/mL; in test [2], over 50 µg/mL; in test [3], 0.007 µg/mL; in [4] it was 0.138 µg/mL; in test [15], 1.46 µg/mL. Further, the IC50 (µg/mL), pseudovirus neutralization in test [9] and in test [10] was over 50 µg/mL throughout.

With PGT-141 (4964_G22; 4993_K13) (antibody), the IC50 is over 50 µg/mL in test [5] and 0.101 µg/mL in [6].

With PGT-144 (4970_K22) (antibody), the IC50 is over 50 µg/mL in [5] and 3.55 µg/mL in test [6].

As to 1496_C09 (PG9) (TCN-109) (antibody), the IC50 (µg/mL), pseudovirus neutralization is 0.163 µg/mL in [7], 0.076 µg/mL in [9] and 0.18 µg/mL in test [10]. Moreover, the IC50 (µg/ml), pseudovirus neutralization in test [16] came out at 10.6 µg/mL; in test [18] it was 29.6 µg/mL; in [19], 0.09 µg/mL; in test [20] it was 1.45 µg/mL; in test [21] it was 0.01 µg/mL; in test [22], 12.4 µg/mL. The values for the IC50, pseudovirus neutralization in test [14] and in test [15] were 0.048 µg/mL and 0.31 µg/mL, respectively. The substance also returned a neutralization IC50 in test [17] of 26.4 µg/mL. The substance further returned an IC50 in test [23] of 0.06 µg/mL.

For the origin of these results see patent US20240132578A1.
